Data on 2 proteins can be found in publication PMC5764413 (PLoS Neglected Tropical Diseases, 2017).

The series deals with the molecule itself. As to the kind of experiment: cross-linking.

B1: RVFV MP12 nucleocapsid protein (N), wild type, N-terminal 6His-tag (p14-N) (natural protein)
chain: MDNYQELRVQFAAQAVDRNEIEQWVREFAYQGFDARRVIELLKQYGGADWEKDAKKMIVLALTRGNKPRRMMMKMSKEGKATVEALINKYKLKEGNPSRDELTLSRVAAALAGWTCQALVVLSEWLPVTGTTMDGLSPAYPRHMMHPSFAGMVDPSLPGDYLRAILDAHSLYLLQFSRVINPNLRGRTKEEVAATFTQPMNAAVNSNFISHEKRREFLKAFGLVDSNGKPSAAVMAAAQAYKTAA
As to B1, the binding result is given as “binds”.

B2: RVFV MP12 N protein delN1-14, N-terminal 6His-tag (p14-N) (domain or fragment)
chain: AVDRNEIEQWVREFAYQGFDARRVIELLKQYGGADWEKDAKKMIVLALTRGNKPRRMMMKMSKEGKATVEALINKYKLKEGNPSRDELTLSRVAAALAGWTCQALVVLSEWLPVTGTTMDGLSPAYPRHMMHPSFAGMVDPSLPGDYLRAILDAHSLYLLQFSRVINPNLRGRTKEEVAATFTQPMNAAVNSNFISHEKRREFLKAFGLVDSNGKPSAAVMAAAQAYKTAA
In the case of B2, the binding result is listed as “binds”.
